Laboratory results as given in the supplement of paper PMC9732359.
± gives the uncertainty stated by the source.

Assay: protein stability index of a GFP-peptide fusion (yeast GPS) (PSI 1-4); higher = more stable; sorted into four equal gates, so the index is relative within each strain
How it was run: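 Yeast carrying a pooled library were grown to mid-log phase in leucine-free medium. Each library plasmid expresses Cherry and has a tiled 17-residue yeast protein peptide fused downstream of GFP. Cells were sorted into four equal gates by GFP/Cherry ratio, and plasmids from each gate were PCR-amplified, Illumina-sequenced and assigned to strains by barcode. Summing, across gates, the read frequency times the gate number gave each peptide's protein stability index.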

Row | Sequence | protein stability index (doa10∆) | protein stability index (pdr5∆) | protein stability index (san1∆) | protein stability index (ubr1∆)
1 | YRLDIIESALKSKLDQD [RPN2] | 1.66 ± 0.093 | 1.96 ± 0.12 | 1.99 ± 0.16 | 1.94 ± 0.19
2 | KAFTNWNKRDFMAFINA [ISW2] | 1.26 ± 0.078 | 1.25 ± 0.091 | 1.25 ± 0.16 | 1.16 ± 0.062
3 | IVQAKEPNLAAQQDSTN [ECM29] | 2.51 ± 0.11 | 2.88 ± 0.054 | 2.69 ± 0.1 | 2.75 ± 0.063
4 | VFLKHSLSIKLATLHYQ [RPN6] | 2.22 ± 0.059 | 2.57 ± 0.067 | 1.71 ± 0.11 | 3.08 ± 0.055
5 | QHGFEVQVGPMKVFVTK [RPB7] | 2.26 ± 0.065 | 2.41 ± 0.079 | 2.43 ± 0.089 | 2.52 ± 0.09
6 | YPDLQPFVLAENMWPFS [CDC53] | 1.68 ± 0.05 | 2.09 ± 0.044 | 2.01 ± 0.055 | 1.71 ± 0.044
7 | LLNKNTGNNLYDRNSNN [SWI1] | 2.79 ± 0.065 | 2.85 ± 0.06 | 2.7 ± 0.064 | 2.9 ± 0.038
8 | NEDQFLEEITQYEHLIK [YDL116W/NUP84] |  | 3.02 ± 0.27 |  | 
9 | GTGNNNKLNFIVDDKQE [DIB1] | 1.42 ± 0.073 | 1.36 ± 0.047 | 1.57 ± 0.17 | 1.61 ± 0.058
10 | TKANDKNESATINEMMK [FAS2] | 3.1 ± 0.084 | 3.17 ± 0.094 | 3.03 ± 0.062 | 3.11 ± 0.057
11 | SQVKDSVTETESISQTP [SRP68] | 2.92 ± 0.12 | 3.02 ± 0.11 | 3.22 ± 0.21 | 2.93 ± 0.084
12 | EHFLKLNIDFGSDKQMF [YML103C/NUP188] | 2.61 ± 0.075 | 2.59 ± 0.07 | 2.26 ± 0.1 | 3.16 ± 0.061
13 | NQGVNELKYQRSLRATA [RPL15A] | 1.33 ± 0.073 | 1.42 ± 0.086 | 1.61 ± 0.18 | 1.11 ± 0.05
14 | VTTCVYLACKVEECPQY [SSN8] | 1.93 ± 0.059 | 2.05 ± 0.075 | 2.58 ± 0.11 | 1.96 ± 0.073
15 | IVALTNAKDKERLQLLE [SMC3] | 3.22 ± 0.19 | 3.29 ± 0.13 | 3.01 ± 0.07 | 3.21 ± 0.11
16 | EDAIHIALLTLKESVEG [PRE8] | 2.94 ± 0.092 | 2.87 ± 0.085 | 2.94 ± 0.069 | 2.92 ± 0.076
17 | FLQHPDEEYPVKVKVSY [PRP8] | 3.24 ± 0.083 | 3.18 ± 0.11 | 3.21 ± 0.082 | 2.63 ± 0.063
18 | ELKTRDATNTSYKMIQL [SWP82] | 3.39 ± 0.1 | 3.5 ± 0.078 | 3.16 ± 0.059 | 3.29 ± 0.047
19 | INKIVEILTNQQRGITY [YGR119C/NUP57] | 1.64 ± 0.073 | 1.99 ± 0.12 | 2.12 ± 0.13 | 2.09 ± 0.065
20 | GNSERPSAVAGFINQKN [YIL149C/MLP2] | 3.31 ± 0.1 | 3.29 ± 0.12 | 2.93 ± 0.097 | 3.03 ± 0.051
21 | IAHNISAKNRVVILARA [RPL32] | 1.66 ± 0.043 | 1.71 ± 0.058 | 1.76 ± 0.085 | 1.52 ± 0.043
22 | EKAVEEKPAVKSYASLL [RPT3] | 2.89 ± 0.06 | 3.02 ± 0.053 | 2.92 ± 0.052 | 2.96 ± 0.049
23 | NPYSSYVSQIRKHKRVS [YAR002W/NUP60] | 2.23 ± 0.081 | 1.88 ± 0.05 | 2.85 ± 0.049 | 2.38 ± 0.067
24 | LYQSKGRYMEALALYVD [SRP68] | 1.86 ± 0.076 | 1.9 ± 0.14 | 1.9 ± 0.15 | 2 ± 0.11
25 | VGDFLLQYANNAVISHA [SIN4] | 1.99 ± 0.074 | 1.79 ± 0.05 | 1.82 ± 0.074 | 1.49 ± 0.035
26 | NQKTSAVAALTEVRAED [RPL8A] | 2.92 ± 0.082 | 2.94 ± 0.071 | 3.18 ± 0.058 | 2.68 ± 0.087
27 | VESPDKNVRFRVLQLLA [YCG1] | 1.09 ± 0.098 | 1.4 ± 0.12 | 1.18 ± 0.13 | 1.65 ± 0.13

Row | Sequence | protein stability index (doa10∆) | protein stability index (pdr5∆) | protein stability index (san1∆) | protein stability index (ubr1∆)
28 | HPIRLYTRYLDRIYMLF [PRP8] | 2.63 ± 0.067 | 1.76 ± 0.063 | 2.29 ± 0.1 | 2.4 ± 0.042
29 | RLTKQAFDWVLSNIEAQ [RPO21] | 3.2 ± 0.12 | 2.93 ± 0.12 | 3.19 ± 0.091 | 2.8 ± 0.088
30 | EKIKMKLKQGQKLFVQV [GAL11] | 2.85 ± 0.13 | 3.2 ± 0.09 | 3.28 ± 0.074 | 3.23 ± 0.14
31 | GSSAGMNGRSLTYAQQQ [SNF6] | 2.99 ± 0.083 | 3.15 ± 0.081 | 3.03 ± 0.058 | 3.24 ± 0.044
32 | VLSINPDMYERKVENIR [MED7] | 2.81 ± 0.08 | 3.03 ± 0.086 | 2.79 ± 0.052 | 2.79 ± 0.062
33 | TNSSILLGKILPREEHD [RRP6] | 1.55 ± 0.064 | 2.18 ± 0.16 | 1.61 ± 0.25 | 1.58 ± 0.11
34 | PTSDEPVPESAGKADTS [SRB4] | 2.86 ± 0.085 | 3.07 ± 0.092 | 2.88 ± 0.065 | 3.07 ± 0.045
35 | AEVNGGDDEATEIISTL [BRR2] | 3.33 ± 0.094 | 3.1 ± 0.13 | 3.43 ± 0.095 | 3.11 ± 0.21
36 | DLKDILEKVVPLINVVV [BRR2] | 2.22 ± 0.12 | 1.91 ± 0.077 | 2.37 ± 0.15 | 2.51 ± 0.065
37 | LTADARSMIEHARTAAV [PUP2] | 2.11 ± 0.13 | 2.87 ± 0.22 | 2.38 ± 0.16 | 2.71 ± 0.084
38 | TMRRQKLTILQEGIEAI [RET1] | 2.39 ± 0.076 | 2.67 ± 0.051 | 2.8 ± 0.078 | 2.96 ± 0.062
39 | KYIGEGSRMVRELFVMA [RPT6] | 2.24 ± 0.063 | 2.11 ± 0.058 | 2.81 ± 0.082 | 1.89 ± 0.07
40 | DILLNERVWNICLYSSF [AAR2] | 1.91 ± 0.066 | 1.68 ± 0.064 | 1.55 ± 0.14 | 1.84 ± 0.04
41 | LFHSCTRIQYVDFACCT [GRR1] | 2.56 ± 0.12 | 2.44 ± 0.067 | 2.2 ± 0.075 | 2.21 ± 0.063
42 | ASDESLLRYGGAFTIAL [RPN2] | 3.39 ± 0.099 | 3.35 ± 0.13 | 3.25 ± 0.098 | 3.34 ± 0.083
43 | NGERKFLKEKDTVAELQ [FAS2] |  | 3.38 ± 0.23 | 3.11 ± 0.24 | 3.02 ± 0.076
44 | AGNSQITSGGFLLKAYI [SRB5] | 2.11 ± 0.1 | 2.53 ± 0.097 | 2.24 ± 0.17 | 2.92 ± 0.11
45 | FDEFMNVVIDEAVEIPV [SME1] | 2.86 ± 0.056 | 3.19 ± 0.066 | 2.94 ± 0.071 | 2.9 ± 0.045
46 | DLQRTQTLSEKEYQCSA [YIL149C/MLP2] | 2.98 ± 0.1 | 2.97 ± 0.091 | 3.11 ± 0.069 | 2.96 ± 0.069
47 | IRQYALATAHIYLSRFL [SSN8] | 1.38 ± 0.034 | 1.34 ± 0.036 | 1.26 ± 0.12 | 1.11 ± 0.04
48 | FAGEAGDTVQFAEYIQA [PRE1] | 1.72 ± 0.089 | 1.74 ± 0.094 | 1.75 ± 0.13 | 2.09 ± 0.054
49 | RNEDARRNLRYGDRMKL [RPO31] | 3.37 ± 0.096 | 3.38 ± 0.084 | 3.21 ± 0.08 | 3.38 ± 0.065
50 | NLDGTKAVKLRKSYKNQ [ROX3] | 3.43 ± 0.1 | 3.36 ± 0.096 | 3.39 ± 0.067 | 3.58 ± 0.046
51 | DFDDFLKLGLVEYLDVN [RET1] | 3.01 ± 0.092 | 3.07 ± 0.1 | 3 ± 0.11 | 3.06 ± 0.1
52 | SLDFLNQSFIQQKANLL [COR1] |  | 1.77 ± 0.13 |  | 1.65 ± 0.079
53 | VVPDLGHLNGHTPTIAS [SSN2] | 2.15 ± 0.045 | 2.65 ± 0.055 | 2.69 ± 0.048 | 2.59 ± 0.038
